Among the data in the emibetuzumab library of Makowski et al. (2022) are non-specific binding call values, retold here.

B1: VH:VL chains; a variant is named by its letters at X, in order (parent)
chain 1: QVQLVQSGAEVKKPGASVKVSCKASGYTFTDYXMHWVRQAPGQGLEWMGXVNPNXXXTTYNQKFEGRVTMTTDTSTSTAYMELRSLRSDDTAVYYCARXNXLDXWGQGTTVTVSS
chain 2: DIQMTQSPSSLSASVGDRVTITCSVSSSVSSIYLHWYQQKPGKAPKLLIYSTSNLASGVPSRFSGSGSGTDFTLTISSLQPEDFATYYCQVYSGYPLTFGGGTKVEIK

Variants of B1 are the subject of this data set. In words: yeast display scFab, FACS + sequencing. In a few lines:
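The non-specific binding call was based on sorted and sequenced yeast displaying a heavy-chain CDR mutant scFab library. Labelling used anti-Myc with biotinylated ovalbumin (260 μg/mL in PBSB, 3 h, room temperature) or soluble membrane proteins (130 μg/mL, 20 min on ice), and FACS collected the top 25% and bottom 10% of binders in two replicates. Positive meant present in ≥3 of 4 pooled positive samples and in no negatives, and negative meant the converse.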
Consider VTTADDWV, for which the non-specific binding call is listed as “no binding”.
Under YTTRDDSD stands “no binding”.
Turning to STTRGAVA, the non-specific binding call is recorded as “no binding”.
For DTTEASLV, the non-specific binding call is on record as “no binding”.
Regarding ATTGGDWD, the non-specific binding call is on record as “no binding”.
Under DTTGGDGV stands “no binding”; under VTTKSDSV, “no binding”; under VTTKSDSA, “no binding”.
On to YTRGGSGA, for which the non-specific binding call is given as “binds”.
For the variant YTRGNAWA, the non-specific binding call was “binds”.
Under DTTGSDVY stands “no binding”; under DTTGSDVF, “no binding”.
The same measure for ATTKSDAA: “no binding”; for ATTKSDVA: “no binding”; for FTTRSALS: “binds”.
The same measure for YTTGSASF: “no binding”; for VTRGDVWV: “no binding”; for STRKSYAA: “binds”.
For the variant DTRTAYGF, the non-specific binding call was “binds”.
As for ATRTDDVF, the non-specific binding call is “no binding”.
With DTTRDDSD, the non-specific binding call is “no binding”.
As for DTTGSALD, the non-specific binding call was “no binding”.
On to VTTRAASV, for which the non-specific binding call is reported as “no binding”.
With VTTEASLD, the non-specific binding call is listed as “no binding”.
Under YTTKSDGV stands “no binding”; under STTGSASF, “no binding”; under VTTKSDVA, “no binding”.
The same measure for VTTKSDVF: “no binding”; for VTTKSSAV: “no binding”.
For the variant DTTKSDGV, the non-specific binding call is on record as “no binding”.
For FTRRSSLF chain 1 V111I, the non-specific binding call is “binds”.
As to FTTRGAVA, the non-specific binding call is reported as “no binding”.
Under DTTKGDGS stands “no binding”; under DTTGSASD, “no binding”.
Consider DTTGSASF, for which the non-specific binding call is “no binding”.
VTTKSSSA: the non-specific binding call is on record as “no binding”.
For the variant VTTKGDVF, the non-specific binding call is “no binding”.
In the case of VTTKSDGA, the non-specific binding call is reported as “no binding”.
Regarding VTTKSDGY, the non-specific binding call is “no binding”.
Consider VTTGSASF, for which the non-specific binding call is listed as “no binding”.
As for ATTRGAVA, the non-specific binding call is recorded as “no binding”.
Under VTTKSSVA stands “no binding”; under VTTKSDLA, “no binding”.
Consider VTTKSAGD, for which the non-specific binding call was “no binding”.
For VTTKSAGV, the non-specific binding call was “no binding”.
With FTTRDDSD, the non-specific binding call was “no binding”.
For the variant DTTKSSSS, the non-specific binding call is “no binding”.
With YTTRGAGA, the non-specific binding call is recorded as “no binding”.
On to VTTRGAVA, for which the non-specific binding call is on record as “no binding”.
Turning to VTTKSYLV, the non-specific binding call is recorded as “no binding”.
As for YTRGSAWV, the non-specific binding call is “binds”.
The same measure for DTTRGAVA: “no binding”; for VTTRASGD: “no binding”; for DTTGSSGV: “no binding”.
YTTGGDVA: the non-specific binding call was “no binding”.
For the variant YTTGGYLV, the non-specific binding call is “binds”.
The same measure for ATTKSDGV: “no binding”.
The same measure for ATTKSDGA: “no binding”; for VTTKSFGV: “no binding”.
In the case of FTTGGSAV chain 1 M48I, the non-specific binding call is “no binding”.
DTTGSDAV: the non-specific binding call is recorded as “no binding”.
Under ATTKSAGD stands “no binding”.
On to STTKSDGV, for which the non-specific binding call is given as “no binding”.
As for YTTGGAAV, the non-specific binding call is “no binding”.
For the variant DTTGSAVV, the non-specific binding call was “no binding”.
Consider DTTGSAVA, for which the non-specific binding call is reported as “no binding”.
Take YTRKSSVD: the non-specific binding call was “binds”.
For VTTRAAVS, the non-specific binding call is on record as “no binding”.
Regarding VTTRADVY, the non-specific binding call was “no binding”.
Under VTTRADVV stands “no binding”; under VTTRADVF, “no binding”; under VTTRADVA, “no binding”.
On to YTTGGSSA, for which the non-specific binding call was “no binding”.
Consider VTRGDSGA, for which the non-specific binding call is “no binding”.
On to VTTGGDGV, for which the non-specific binding call is given as “no binding”.
As to DTTGSDWY, the non-specific binding call is listed as “no binding”.
In the case of DTTGSDWV, the non-specific binding call is listed as “no binding”.
Take DTTGSDWA: the non-specific binding call is reported as “no binding”.
For FTRTNFLS, the non-specific binding call was “binds”.
Take ATTGSASF: the non-specific binding call was “no binding”.
On to VTTRDDSD, for which the non-specific binding call is reported as “no binding”.
On to ATTGGDGV, for which the non-specific binding call is “no binding”.
VTTKSDWV: the non-specific binding call is given as “no binding”.
Under VTTKSAVA stands “no binding”; under VTTKSAAV, “no binding”; under VTTKSAAA, “no binding”.
YTTRGDGV: the non-specific binding call is “no binding”.
Turning to ATTKSAVA, the non-specific binding call was “no binding”.
With YTTGGDWA, the non-specific binding call was “no binding”.
DTTKGDVA: the non-specific binding call is listed as “no binding”.
DTTKGDVV: the non-specific binding call is listed as “no binding”.
YTTGGAVA: the non-specific binding call is listed as “no binding”.
The same measure for DTTRADVD: “no binding”.
The same measure for VTTGGAVD: “no binding”; for VTTKSDAV: “no binding”; for YTTRGSWV: “no binding”.
Regarding YTTGGDGA, the non-specific binding call is “no binding”.
As to STTGGDGV, the non-specific binding call is given as “no binding”.
